According to the supplement of paper PMC10567573:
± gives the standard deviation.

Assay: protein stability index of a GFP-peptide fusion (GPS, HEK-293T) (PSI 1-6); higher = more stable
[1] = treatment: DMSO, c terminus: a fixed tail appended
[2] = treatment: MLN4924 1 uM, 8 h, c terminus: a fixed tail appended
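Further: 24-mer peptide tiles fused after GFP, lentivirally expressed, FACS-sorted into six equal bins by GFP/DsRed ratio, decoded by Illumina sequencing, PSI is the read-weighted mean bin number.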

Sequence	protein stability index [1]	protein stability index [2]	protein stability index (treatment: DMSO, c terminus: native)	protein stability index (treatment: MLN4924 1 uM, 8 h, c terminus: native)
IIELLEKDGMAFQEALDPGPFDQG [ELF3]	3.58 ± 0.39	3.44 ± 0.32	–	–
PNALIASLALGDLIYVVIDLPINV [EDNRA]	3.12 ± 0.42	3.03 ± 0.35	–	–
YRKKSAEFPDFYDSEEPVSTHQEA [CHGB]	4.97 ± 0.12	5.01 ± 0.32	–	–
GTKCHGCDFKIDAGDRFLEALGFS [PDLIM7]	2.63 ± 0.22	2.42 ± 0.36	–	–
ASEEGSESEGSESSGRSCRNERSI [SMG5]	5.54 ± 0.3	5.45 ± 0.31	–	–
LDTERPVQKRARSGPQPRLPPCLL [TRIB3]	3.89 ± 0.41	4.1 ± 0.3	–	–
NEIIKKLQGDLKTLMGKLKLKNTV [SASS6]	–	2.21 ± 0.35	–	–
SEKRRDPPNGPNLPMATVDIKNPE [WASL]	5.35 ± 0.11	5.28 ± 0.17	–	–
QARLEEQQRLAHLEDKLRLLAQAR [LRRC45]	3.37 ± 0.61	3.32 ± 0.35	–	–
SLCVLVSTVGKLCRLINEDVNEQV [CEP70]	3.25 ± 0.48	2.96 ± 0.21	–	–
EMQIENLKEELAYLKKNHEEEMNA [KRT17]	4.67 ± 0.24	4.88 ± 0.33	–	–
AAAGAVGLERRDWSPSPPATPEQG [SPDEF]	5.09 ± 0.26	5.18 ± 0.17	–	–
WKIAPAMAAGNTVIAKPSELTSVT [ALDH8A1]	3.12 ± 0.41	3.17 ± 0.53	–	–
TLVEAIKEQDGREVDWEYFYGLLF [DFFB]	2.46 ± 0.28	2.69 ± 0.63	–	–
LCARLAAGPGAAEPLPVERDPAAG [ZNF511]	4.47 ± 0.21	4.6 ± 0.21	–	–
SSRGAPRGGGRGGSRSDRGGGRSR [RBMX]	5.34 ± 0.18	5.45 ± 0.28	–	–
SCLLLQLRREKPSEEMVKMVLSRP [INTS3]	2.64 ± 0.67	2.42 ± 0.34	–	–
RDRNLLQEDKALWEEEKALWVEER [CCDC70]	5.007 ± 0.024	5.04 ± 0.28	–	–
LLKLEQNTCSVITTLKGHEGSVAC [WDFY1]	2.84 ± 0.12	3.29 ± 0.32	–	–
YSIQERRPQLPQVLQHVRLPLLSP [KLHL20]	3.4 ± 0.18	3.42 ± 0.32	–	–
AQRSAHCSRPSGSSSSSGVLMVGP [CSNK1G1]	3.65 ± 0.24	3.84 ± 0.14	–	–
NYSQDAADACDIDEIEEVPTTSHR [NETO1]	5.55 ± 0.18	5.49 ± 0.17	–	–

Sequence	protein stability index [1]	protein stability index [2]	protein stability index (treatment: DMSO, c terminus: native)	protein stability index (treatment: MLN4924 1 uM, 8 h, c terminus: native)
AYDWVGRPIPTPVGSVHVDSGASA [CSNK1G1]	3.94 ± 0.29	4.08 ± 0.16	–	–
LYLQLAICSSLQNLEKTIFCLQKL [C8orf76]	3.12 ± 0.69	3.2 ± 0.099	–	–
KTSSSSKAGFTASPFTNLLNGSSQ [CDC14A]	3.46 ± 0.27	3.51 ± 0.31	–	–
CFGLQPGCLLPDGSRMMAVAALVV [NLN]	2.47 ± 0.23	2.75 ± 0.34	–	–
TSVFQKKLCTAHMCSTLEHNCAHF [MATN2]	2.47 ± 0.22	2.8 ± 0.34	–	–
HPTPFLAFLRRVKTCNPPDAGPMV [PTPRD]	2.37 ± 0.12	2.26 ± 0.18	–	–
FHTMDELVEHYKKAPIFTSEHGEK [NCK2]	3.88 ± 0.35	3.97 ± 0.27	–	–
WASTSPGTDLPLSEIPRGVRVALD [TRIM15]	3.91 ± 0.29	3.87 ± 0.26	–	–
GKSPSITFEYTLLQPPHESRPQPI [ADAMTSL2]	2.83 ± 0.4	2.83 ± 0.29	–	–
STRPEEGCSLHEEDTQRHETYHQQ [TCAP]	5.47 ± 0.21	5.47 ± 0.2	–	–
PTTGRVYESDSSNHCMLSPSSSGH [C18orf25]	4.24 ± 0.24	4.52 ± 0.052	–	–
QVRIRYLGERRAEPHSLLHLSRLC [SPSB2]	2.34 ± 0.2	2.22 ± 0.22	–	–
VSQHWATWALYNLVSVYPDKYCPL [ZER1]	3.07 ± 0.34	2.74 ± 0.41	–	–
YYLALLLSLLVMVISPVIQLQPTF [NSDHL]	2.68 ± 0.37	2.91 ± 0.64	–	–
LIETYTGLMSFIGNRNKLGYSLAR [TPRG1]	2.31 ± 0.31	2.21 ± 0.16	–	–
TPRSPEGTTEAATQDGKEQPELPC [PXN]	5.38 ± 0.22	5.36 ± 0.23	–	–
QHKTCMLNATSKFMEFYQDVKDWW [EDNRA]	2.6 ± 0.74	2.89 ± 0.36	–	–
TLIPTCKFYTWLWGVFYYFVSALG [SCD]	2 ± 0.52	2.13 ± 0.15	–	–
TLAQAHFNNGEYAEAEALYSAYIR [TTC32]	2.98 ± 0.27	3.39 ± 0.21	–	–
TRIFTEDRFAQDSEMKKCSDYESI [PPEF2]	4.42 ± 0.098	4.25 ± 0.18	–	–
MFIPETKGCSLEQISMELAKVNYV [SLC2A12]	2.33 ± 0.62	2.39 ± 0.31	–	–
VIDDAKQYVYIAVMDYLPISSTST [PLD5]	2.54 ± 0.95	2.76 ± 0.73	–	–

Sequence	protein stability index [1]	protein stability index [2]	protein stability index (treatment: DMSO, c terminus: native)	protein stability index (treatment: MLN4924 1 uM, 8 h, c terminus: native)
IFSQSSALILHQRIHSGKKPYACD [ZNF396]	2.32 ± 0.097	2.53 ± 0.24	–	–
VVVSVAGAFRKGKSFILDFMLRYL [ATL3]	2.55 ± 0.3	2.68 ± 0.34	–	–
QSIEYAGQQDQVKLHDFFSYLMDH [PPEF2]	2.94 ± 0.26	2.92 ± 0.49	–	–
EITTQFLIYASYFALIAVVFLASG [SLC19A2]	3.12 ± 0.9	3.33 ± 0.31	–	–
VRKKRFRKTQKKVPDVKEMEKSSF [TAF7L]	4.1 ± 0.11	4.37 ± 0.19	–	–
QLQELLHHCDDHLSLYQLSLERGT [RSAD1]	2.34 ± 0.24	2.58 ± 0.34	–	–
HSDPEESFARDLPDFPSINMDPAG [RETREG3]	5.19 ± 0.25	5.22 ± 0.16	–	–
EAVARHMLIFSLALEEPEKMGLQE [DNAAF3]	2.47 ± 0.55	2.28 ± 0.27	–	–
LEAQVESLKEELMCLKKNHEEEVS [KRT36]	5.47 ± 0.42	5.46 ± 0.15	–	–
KAAQQGKQEENDVVEKLNLFLDLL [SNX8]	2.45 ± 0.076	2.64 ± 0.34	–	–
MASDTPESLMALCTDFCLRNLDGT [ZER1]	3.88 ± 0.14	3.43 ± 0.41	–	–
GGDKLETMPLYLEDDIRPDIKDDI [SCD]	4.9 ± 0.4	5 ± 0.34	–	–
TQQTGTVRFDGYVIDGATALWCAA [FEM1B]	2.3 ± 0.11	2.22 ± 0.34	–	–
HTGLKPYECGVCAKKFMWRDSFMR [ZBTB22]	2.65 ± 0.52	2.44 ± 0.6	–	–
DEDDSEELEEDDGHGAEQAAAFPT [EHMT1]	5.58 ± 0.27	5.7 ± 0.29	–	–
VKAATTEPTEVEEVVPALEPTETL [BCL2L13]	5.65 ± 0.16	5.67 ± 0.14	–	–
MPTQEVQELPIPSKLLEFLSYRI [WSB1]	–	–	2.82 ± 0.2	3.05 ± 0.12
HQADLEVANRHGHTCLMISCYKGH [FEM1A]	2.73 ± 0.33	2.69 ± 0.45	–	–
NLRATDVRLMRQLLVINESIESIK [LURAP1L]	2.41 ± 0.16	2.58 ± 0.35	–	–
ADGQRHHSKLLVSGFWGVARHFNY [DHCR7]	2.27 ± 0.43	2.14 ± 0.27	–	–
FVIGHLKGAPASWWNHMHFQHHAK [FADS1]	2.65 ± 0.89	2.24 ± 0.47	–	–
